Source: publication PMC3241647 (Nucleic Acids Research, 2011)

B1: Bacillus subtilis Zur H89A (natural protein)
chain: not shown
B2: Bacillus subtilis Zur H90A (natural protein)
chain: not shown
B3: Bacillus subtilis Zur C84S (natural protein)
chain: not shown

Target: the molecule itself
Assay: SEC

Protein	binding result	stoichiometry N
B1	binds	–
B2	binds	–
B3	–	2
